Some results are limits rather than exact numbers.

For this data set, the target named is IgNF-A (NF-A1), ubiquitous octamer-binding protein (Homo sapiens) (UniProt P14859). Nature of the data set: EMSA. The conditions noted are these: affinity over heterologous plasmid DNA; poly(dI-dC) carrier; DNase I footprint -72 to -52.
Chain of IgNF-A (NF-A1), ubiquitous octamer-binding protein (Homo sapiens) (P14859 whole entry): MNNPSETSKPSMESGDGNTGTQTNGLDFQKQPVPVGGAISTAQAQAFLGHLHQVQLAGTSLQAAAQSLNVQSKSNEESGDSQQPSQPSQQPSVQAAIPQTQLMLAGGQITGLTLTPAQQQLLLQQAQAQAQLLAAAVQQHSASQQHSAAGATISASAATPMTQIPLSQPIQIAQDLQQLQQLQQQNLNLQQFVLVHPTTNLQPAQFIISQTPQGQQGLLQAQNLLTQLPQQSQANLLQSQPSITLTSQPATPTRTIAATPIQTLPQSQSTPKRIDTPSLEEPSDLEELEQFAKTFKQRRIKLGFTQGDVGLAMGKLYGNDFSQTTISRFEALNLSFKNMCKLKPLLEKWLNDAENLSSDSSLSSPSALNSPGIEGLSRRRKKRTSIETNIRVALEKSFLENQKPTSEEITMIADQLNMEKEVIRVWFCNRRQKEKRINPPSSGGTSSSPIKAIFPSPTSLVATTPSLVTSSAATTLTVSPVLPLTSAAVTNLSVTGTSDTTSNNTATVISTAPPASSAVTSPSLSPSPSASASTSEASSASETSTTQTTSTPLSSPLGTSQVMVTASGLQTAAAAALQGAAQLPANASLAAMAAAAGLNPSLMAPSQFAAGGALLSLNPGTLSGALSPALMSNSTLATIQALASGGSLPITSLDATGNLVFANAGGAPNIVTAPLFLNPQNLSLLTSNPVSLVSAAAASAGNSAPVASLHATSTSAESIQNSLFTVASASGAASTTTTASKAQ

“MOPC41 V kappa promoter PvuII-SfaNI fragment” had a binding signal of over 10000 fold.
